Assay results taken from patent publication US20110159013A1.

Target: ADDL fibril preparation (Aβ1-42 fibrils made in 10 mM hydrochloric acid)
Experiment: solution equilibrium titration; free IgG by ELISA; GraFit

Kd: 1.15 nM
Substance: monoclonal antibody WO-2
